# PMC6414702, “AtrR Is an Essential Determinant of Azole Resistance in Aspergillus fumigatus”
# Numbering of substitutions follows the chain as printed.
# B1: SphI mutant competitor (dsDNA)
# DNA 1: GTTGTCTCAGAATCACGCGGGCATGCTGTGTGCTGAGCCGAAT
# DNA 2: ATTCGGCTCAGCACACAGCATGCCCGCGTGATTCTGAGACAAC
# B2: DM competitor (dsDNA)
# DNA 1: GAATCACGCGGTATTGATGTGTGCTGAGTATAAT
# DNA 2: ATTATACTCAGCACACATCAATACCGCGTGATTC
# B3: EcoRI mutant competitor (dsDNA)
# DNA 1: GTTGTCTCAGAATCACGCGGTCCGGATGTGGAATTCGCCGAAT
# DNA 2: ATTCGGCGAATTCCACATCCGGACCGCGTGATTCTGAGACAAC
# B4: cyp51A 42-bp wild-type competitor (dsDNA)
# DNA 1: B1 DNA 1 with G21T, A23C, T24G, C26A
# DNA 2: B1 DNA 2 with G18T, A20C, T21G, C23A
# B5: cyp51A 34-bp probe (dsDNA)
# DNA 1: GAATCACGCGGTCCGGATGTGTGCTGAGCCGAAT
# DNA 2: ATTCGGCTCAGCACACATCCGGACCGCGTGATTC
# Assays:
# [1] = target: T1, AtrR DNA-binding domain (AtrR-DBD) (Aspergillus fumigatus) (UniProt Q4WI89); assay: EMSA; conditions: Biotin EMSA: 25 mM Tris-HCl pH 7.5, 80 mM NaCl, 35 mM KCl, 5 mM MgCl2, 10% glycerol, 1 ug poly(dI-dC), 20 ul, 0.1 ug AtrR-DBD, 20 pmol probe, room temperature …
# T1 sequence: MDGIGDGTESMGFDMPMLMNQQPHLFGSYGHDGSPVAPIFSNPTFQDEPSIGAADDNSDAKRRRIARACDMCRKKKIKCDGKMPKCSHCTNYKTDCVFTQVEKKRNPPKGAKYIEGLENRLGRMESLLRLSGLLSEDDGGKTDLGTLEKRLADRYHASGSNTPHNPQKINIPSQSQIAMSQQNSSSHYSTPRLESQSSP
# [2] = target: T2, AtrR DNA-binding domain (AtrR-DBD) (Aspergillus fumigatus, UniProt Q4WI89 1-199); assay: competition; 10-fold excess over biotinylated 34-bp probe (12-fold in Methods); Biotin EMSA: 25 mM Tris-HCl pH 7.5, 80 mM NaCl, 35 mM KCl, 5 mM MgCl2, 10% glycerol, 1 ug poly(dI-dC), 20 ul, 0.1 ug AtrR-DBD, 20 pmol probe, room temperature 30 min; 32P EMSA and footprinting as in cited reference 40; conditions: protein: recombinant; chain copies: 2; blunt
# T2 sequence: T1 sequence
# [3] = target: T2, AtrR DNA-binding domain (AtrR-DBD); assay: EMSA; 5 mM Mg2+, poly(dI-dC); Biotin EMSA: 25 mM Tris-HCl pH 7.5, 80 mM NaCl, 35 mM KCl, 5 mM MgCl2, 10% glycerol, 1 ug poly(dI-dC), 20 ul, 0.1 ug AtrR-DBD, 20 pmol probe, room temperature 30 min; 32P EMSA and footprinting as in cited reference 40; conditions: protein: recombinant; chain copies: 2; label: 5' biotin on both strands; blunt
Molecule,binding result [2],other results
GAAAAAACTCATGAGTGAATAATCGCAGCACCACTCCAGAGTTGTCTAGAATCACGCGGTCCGGATGTGTGCTGAGCCGAATGAAAGTTGCCTAATTACTAAGGTGTAGTTCCAGCATACCATACACCCTAACTCATACTACGGTAGGTAGATCTACTTACCTATGAACCTATATTGGTAGGTAGGTGAATATAAAATACAGCATG (double strand) [cyp51A promoter PCR probe],–,binding [1]: binds
B1,no binding,–
B2,no binding,–
B3,binds,–
B4,binds,–
B5,–,binding result [3]: binds
